# Source: patent US20180291107A1 (Eli Lilly, published 2018)
# T1: mouse CSF-1R (mouse, UniProt P09581 20-511, limits assumed)
# T1 construct: also called murine target protein (of the CSF-1R antibody); murine CSF-1R
# T1 sequence (looked up): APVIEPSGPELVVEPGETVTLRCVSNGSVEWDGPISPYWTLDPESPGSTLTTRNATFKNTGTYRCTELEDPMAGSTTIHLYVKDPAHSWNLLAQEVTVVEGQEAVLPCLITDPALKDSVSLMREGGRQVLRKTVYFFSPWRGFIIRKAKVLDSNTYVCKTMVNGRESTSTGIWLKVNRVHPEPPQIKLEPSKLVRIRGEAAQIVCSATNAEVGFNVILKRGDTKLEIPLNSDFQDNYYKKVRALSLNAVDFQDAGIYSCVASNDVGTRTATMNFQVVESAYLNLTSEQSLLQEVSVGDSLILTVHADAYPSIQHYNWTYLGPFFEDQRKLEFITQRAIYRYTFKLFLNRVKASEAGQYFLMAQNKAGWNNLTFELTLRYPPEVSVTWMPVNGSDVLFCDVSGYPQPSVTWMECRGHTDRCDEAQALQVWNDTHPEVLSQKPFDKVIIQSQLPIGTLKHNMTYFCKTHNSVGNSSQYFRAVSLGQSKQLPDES
# What was measured:
# mouse CSF-1R = molecular target: T1, mouse CSF-1R; test: not described
# mouse PD-L1 = molecular target: T2, mouse PD-L1 (mouse, UniProt Q9EP73 19-238, limits assumed); test: not described
# T2 construct: also called murine target protein (of the PD-L1 antibody); murine PD-L1
# T2 sequence (Q9EP73 19-238 limits assumed): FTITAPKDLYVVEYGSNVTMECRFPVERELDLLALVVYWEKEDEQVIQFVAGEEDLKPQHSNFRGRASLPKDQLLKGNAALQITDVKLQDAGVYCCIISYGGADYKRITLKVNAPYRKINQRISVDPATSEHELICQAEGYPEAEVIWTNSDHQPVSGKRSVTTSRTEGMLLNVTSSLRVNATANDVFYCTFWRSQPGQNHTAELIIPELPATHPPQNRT
# [1] = molecular target: T3, Soluble human PD-L1-Fc fusion protein (human, UniProt Q9NZQ7 19-239, limits assumed); test: SPR (Biacore T200), antibody immobilised, PD-L1-Fc as analyte, 37 C, 1:1 model
# T3 construct: not shown: Fc part
# T3 sequence (Q9NZQ7 19-239 limits assumed): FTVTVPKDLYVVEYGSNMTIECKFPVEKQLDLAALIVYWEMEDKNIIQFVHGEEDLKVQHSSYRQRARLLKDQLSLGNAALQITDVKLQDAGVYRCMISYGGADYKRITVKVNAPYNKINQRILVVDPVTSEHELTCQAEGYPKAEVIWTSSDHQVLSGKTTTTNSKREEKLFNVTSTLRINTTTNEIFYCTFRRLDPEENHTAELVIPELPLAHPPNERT
# Method: The kinetics and equilibrium dissociation constant (KD) for human PD-L1 is determined for anti-PD-L1 antibodies of the present invention using surface plasmon resonance (Biacore).
# Immobilization of anti-PD-L1 antibodies of the present invention as ligand on to sensor chip surface is performed at 25° C. Soluble human PD-L1-Fc fusion protein is injected as analyte at concentrations ranging from 0.0123 nM-9 nM. The analysis is performed at 37° C. The contact time for each sample is 180 sec at 30 μl/min. The dissociation time was 240-1500 seconds. The immobilized surface is regenerated for 18 seconds with 0.95 M NaCl/25 mM NaOH at […], and then stabilized for 30 seconds. Binding kinetics are analyzed using the Biacore T200 Evaluation software (Version 3.0). Data are referenced to a blank flow cell, and the data are fit to a 1:1 binding model.
binding result (mouse CSF-1R),binding result (mouse PD-L1),Kd [1],Binder
binds,–,–,"CS7 (antibody, V domains shown, Rat antibody generated from a hybridoma; also called IMC-CS7; rat anti-mouse CSF-1R antibody) VH: DRQMVESGGGLVRPGRSLKLSCAASGFTFSNYYMAWVRLAPSKGLEWVASISPSGDNTYYPDSVQGRFTISRDNAETTLYLQVDSLRSEDTATYYCATRHYGYSFFDYWGQGVLVTVSS VL: DTVLTQSPALAVSPGERVTISCRASESVSTLIHWYQQKPGQQPKLLIFLASHLESGVPARFSGSGSGTDFTFTIDPVEADDTATYYCQQSWNDPPTFGGGTKLELK"
no binding,–,–,"Antibody 1 (antibody, human IgG1, kappa, V domains shown, also called Anti-CSF-1R antibody) VH: QDQLVESGGGVVQPGRSLRLSCAASGFTFSSYGMHWVRQAPGEGLEWVAVIWYDGSNKYYADSVKGRFTISRDNSKNTLYLQMNSLRAEDTAVYYCARGDYEVDYGMDVWGQGTTVTVAS VL: AIQLTQSPSSLSASVGDRVTITCRASQGISNALAWYQQKPGKAPKLLIYDASSLESGVPSRFSGSGSGTDFTLTISSLQPEDFATYYCQQFNSYPWTFGQGTKVEIKR"
–,no binding,0.082 nM,"Antibody A (antibody, human IgG1, lambda, V domains shown, also called Anti-PD-L1 antibody) VH: QVQLVQSGAEVKKPGSSVKVSCKASGGTFSSYAISWVRQAPGQGLEWMGGIIPIFGTANYAQKFQGRVTITADKSTSTAYMELSSLRSEDTAVYYCARSPDYSPYYYYGMDVWGQGTTVTVSS VL: QSVLTQPPSASGTPGQRVTISCSGSSSNIGSNTVNWYQQLPGTAPKLLIYGNSNRPSGVPDRFSGSKSGTSASLAISGLQSEDEADYYCQSYDSSLSGSVFGGGIKLTVLG"
